Laboratory results reported in publication PMC11569192 (Nature Communications, 2024).

Key:
[1] = biological target: DS-Cav1-His6 (respiratory syncytial virus subtype A, strain A2 | not stated) (UniProt P03420); assay: cross-linking
[2] = biological target: DS-Cav1-His6 (respiratory syncytial virus subtype A, strain A2 | not stated) (UniProt P03420); assay: negative-stain EM
[3] = biological target: DS-Cav1-His6 (respiratory syncytial virus subtype A, strain A2 | not stated) (UniProt P03420); assay: SEC
[4] = biological target: DS-Cav1 (respiratory syncytial virus subtype A, strain A2 | not stated) (UniProt P03420); assay: SEC
[5] = biological target: sc9-10 DS-Cav1 (respiratory syncytial virus subtype A, strain A2 | not stated) (UniProt P03420); assay: SEC
[6] = biological target: SC-TM-His6 (respiratory syncytial virus subtype A, strain A2 | not stated) (UniProt P03420); assay: cross-linking
[7] = biological target: SC-TM-His6 (respiratory syncytial virus subtype A, strain A2 | not stated) (UniProt P03420); assay: SEC
[8] = biological target: sc9-10 DS-Cav1-His6 (respiratory syncytial virus subtype A, strain A2 | not stated) (UniProt P03420); assay: cross-linking
[9] = biological target: sc9-10 DS-Cav1-His6 (respiratory syncytial virus subtype A, strain A2 | not stated) (UniProt P03420); assay: SEC
[10] = biological target: T1, sc9-10 DS-Cav1 (Human respiratory syncytial virus A, …, S215P | A149C | Y458C | S46G | K465Q); assay: cell-based or functional assay
T1 chain: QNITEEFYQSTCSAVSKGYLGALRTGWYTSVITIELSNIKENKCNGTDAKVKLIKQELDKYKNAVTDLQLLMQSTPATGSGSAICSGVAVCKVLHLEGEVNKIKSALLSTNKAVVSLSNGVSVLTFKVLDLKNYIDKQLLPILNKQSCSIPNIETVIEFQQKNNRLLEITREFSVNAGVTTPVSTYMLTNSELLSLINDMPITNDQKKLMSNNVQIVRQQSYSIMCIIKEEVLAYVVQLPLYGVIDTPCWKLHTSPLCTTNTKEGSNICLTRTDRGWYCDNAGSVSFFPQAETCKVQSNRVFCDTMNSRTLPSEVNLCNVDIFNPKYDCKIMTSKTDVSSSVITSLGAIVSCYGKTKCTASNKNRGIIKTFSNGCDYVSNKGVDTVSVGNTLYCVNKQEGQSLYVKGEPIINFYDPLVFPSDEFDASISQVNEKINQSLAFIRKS

[11] = biological target: UFCM1-P2 (human metapneumovirus, Q1A2Z0 …, UniProt Q1A2Z0, E80D | T127C | N153C | A185P | V155P); assay: ELISA
[12] = biological target: UFCM1 (human metapneumovirus, Q1A2Z0 …, UniProt Q1A2Z0, E80D | T127C | N153C | A185P); assay: ELISA
[13] = biological target: 847A-His6 (human respiratory syncytial virus A, …, UniProt A0A7D5GVC1, I148C | D486S); assay: ELISA
[14] = biological target: T2, UFCM1-P2-iSS (Human metapneumovirus, strain NL/1/00 …, stabilised); assay: negative-stain EM
T2 chain: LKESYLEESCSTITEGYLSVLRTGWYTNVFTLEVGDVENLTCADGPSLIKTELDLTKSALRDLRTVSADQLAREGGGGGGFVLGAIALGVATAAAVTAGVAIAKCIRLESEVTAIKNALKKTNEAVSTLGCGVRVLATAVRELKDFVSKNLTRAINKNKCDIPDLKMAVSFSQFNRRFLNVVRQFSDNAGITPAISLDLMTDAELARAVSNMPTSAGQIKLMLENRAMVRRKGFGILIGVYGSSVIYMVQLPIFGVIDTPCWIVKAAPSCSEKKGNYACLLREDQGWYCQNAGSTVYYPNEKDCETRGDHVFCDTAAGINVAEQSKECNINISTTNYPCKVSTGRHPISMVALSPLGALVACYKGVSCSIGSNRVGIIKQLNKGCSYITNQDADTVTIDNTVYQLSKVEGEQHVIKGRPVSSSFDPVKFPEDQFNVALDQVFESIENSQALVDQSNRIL

“DS-Cav1-His6 (from UniProt P03420 137-513) (domain or fragment)” gave a stoichiometry N [1] of 3, a stoichiometry N [2] of 3 and a stoichiometry N [3] of 3.

“DS-Cav1 (from UniProt P03420 137-513) (domain or fragment)” was tested, and the stoichiometry N [4] was 3.

“sc9-10 DS-Cav1 (from UniProt P03420 26-513) (domain or fragment)” was tested, and the stoichiometry N [5] was 3.

Work on “SC-TM-His6 (from UniProt P03420 26-513) (domain or fragment)” yielded a stoichiometry N [6] of 3 and a stoichiometry N [7] of 3.

For “sc9-10 DS-Cav1-His6 (from UniProt P03420 26-513) (domain or fragment)”, the stoichiometry N [8] was 3 and the stoichiometry N [9] was 3.

B1: A4 scFv-Fc (scFv, V domains shown)
VH: EVQLVESGGGLVQPGGSLRLSCAASGFTFTTYAMHWVRQSPGKGLEWLASISYDGTSQYYAESVKGRFTVSRDNSKKTLLLQVNSLRPEDTAVYYCAGSPSGHYSWLGYFYAMDVWGQGTLVTVSS
VL: QSALTQPASVSGSPGQSITISCTGASSDVGGYDYVSWYQQHPGKAPKLLIYDVSDRPSGVSNRFSGSKSGNTASLTISGLQTEDEADYYCSSYTSKNTLIFGGGTKLTVL
With B1 the “live RSV (RSV-A2-GFP) neutralization, IC50, scFv-Fc form” value [10] was 2.1 ng/mL.

B2: MPE8 IgG (antibody, V domains shown)
VH: EVQLVESGGGLVKPGGSLRLSCAASGFTFSSYSMNWVRQAPGKGLEWVSSISASSSYSDYADSAKGRFTISRDNAKTSLFLQMNSLRAEDTAIYFCARARATGYSSITPYFDIWGQGTLVTVSS
VL: QSVVTQTPSVSGAPGQRVTISCTGSSSNIGAGYDVHWYQQLPGTAPKLLIYDNNNRPSGVPDRFSASKSGTSASLAITGLQAEDEADYYCQSYDRNLSGVFGTGTKVTVL
B2: binds [11]; binds [12]; binds [13].

B3: MPE8 Fab (Fab, V domains shown)
VH: EVQLVESGGGLVKPGGSLRLSCAASGFTFSSYSMNWVRQAPGKGLEWVSSISASSSYSDYADSAKGRFTISRDNAKTSLFLQMNSLRAEDTAIYFCARARATGYSSITPYFDIWGQGTLVTVSS
VL: QSVVTQTPSVSGAPGQRVTISCTGSSSNIGAGYDVHWYQQLPGTAPKLLIYDNNNRPSGVPDRFSASKSGTSASLAITGLQAEDEADYYCQSYDRNLSGVFGTGTKVTVL
For B3, the “stoichiometry N” value [14] was 3 Fabs per trimer.
